The values below come from US20140323392A1.

Assay [1] has as its target HIV-1 JRFL envelope glycoprotein gp41 (N-trimer of the prehairpin intermediate) (HIV-1 strain JRFL). Description: cell-based or functional assay.
For assay [2], the target named is HIV-1 HXB2 envelope glycoprotein gp41 (N-trimer of the prehairpin intermediate) (HIV-1 strain HXB2) (UniProt P04578). Briefly: cell-based or functional assay.

As to “C34 (from UniProt P04578 628-661) (peptide)”, in assay [1], the IC50, JRFL pseudovirion entry was determined as 13400 pM. The substance also registered an IC50, HXB2 pseudovirion entry in assay [2] of 1400 pM.
The corresponding values for “C34-PEG2-Chol (from UniProt P04578 628-661) (peptide)” are 50 pM and 44 pM.
Take “C34-PEG11-Chol (from UniProt P04578 628-661) (peptide)”: the IC50, JRFL pseudovirion entry in assay [1] amounted to 24 pM. The substance also came in with an IC50, HXB2 pseudovirion entry in assay [2] of 21 pM.
For “C34-PEG80-Chol (from UniProt P04578 628-661) (peptide)” the same measures were 100 pM and 22 pM.
